Laboratory results reported in patent US20220332804A1 (CSL INNOVATION, published 2022).

Key:
Assay in all cases: SPR, antibody captured, C2 as analyte;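 also: biacore at 37 °C, anti-C2 mAbs held by immobilised goat anti-human IgG, C2 alanine or serine mutants injected, double-referenced sensorgrams fitted to a 1:1 kinetic or steady-state model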
[1] = target: T1, human C2 V418A (human, UniProt P06681 21-752)
T1 sequence: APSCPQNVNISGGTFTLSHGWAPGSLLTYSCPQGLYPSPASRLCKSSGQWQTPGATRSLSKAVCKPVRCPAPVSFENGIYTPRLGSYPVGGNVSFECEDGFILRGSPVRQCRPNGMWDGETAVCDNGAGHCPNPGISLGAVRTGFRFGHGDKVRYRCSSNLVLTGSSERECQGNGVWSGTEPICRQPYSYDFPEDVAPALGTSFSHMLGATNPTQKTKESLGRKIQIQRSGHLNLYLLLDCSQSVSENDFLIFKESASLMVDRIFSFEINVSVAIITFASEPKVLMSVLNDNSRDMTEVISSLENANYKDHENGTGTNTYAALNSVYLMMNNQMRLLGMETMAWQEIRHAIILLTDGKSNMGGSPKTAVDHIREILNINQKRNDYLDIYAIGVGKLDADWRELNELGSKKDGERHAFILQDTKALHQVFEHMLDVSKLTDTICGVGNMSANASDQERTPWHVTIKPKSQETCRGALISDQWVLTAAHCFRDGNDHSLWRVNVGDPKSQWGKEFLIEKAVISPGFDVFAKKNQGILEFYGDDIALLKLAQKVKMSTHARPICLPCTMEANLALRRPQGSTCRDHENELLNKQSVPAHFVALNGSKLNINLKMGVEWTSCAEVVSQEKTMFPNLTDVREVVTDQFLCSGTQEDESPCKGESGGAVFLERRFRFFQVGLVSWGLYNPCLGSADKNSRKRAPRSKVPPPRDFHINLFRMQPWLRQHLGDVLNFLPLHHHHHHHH

[2] = target: T2, human C2 H435A (human, UniProt P06681 21-752)
T2 sequence: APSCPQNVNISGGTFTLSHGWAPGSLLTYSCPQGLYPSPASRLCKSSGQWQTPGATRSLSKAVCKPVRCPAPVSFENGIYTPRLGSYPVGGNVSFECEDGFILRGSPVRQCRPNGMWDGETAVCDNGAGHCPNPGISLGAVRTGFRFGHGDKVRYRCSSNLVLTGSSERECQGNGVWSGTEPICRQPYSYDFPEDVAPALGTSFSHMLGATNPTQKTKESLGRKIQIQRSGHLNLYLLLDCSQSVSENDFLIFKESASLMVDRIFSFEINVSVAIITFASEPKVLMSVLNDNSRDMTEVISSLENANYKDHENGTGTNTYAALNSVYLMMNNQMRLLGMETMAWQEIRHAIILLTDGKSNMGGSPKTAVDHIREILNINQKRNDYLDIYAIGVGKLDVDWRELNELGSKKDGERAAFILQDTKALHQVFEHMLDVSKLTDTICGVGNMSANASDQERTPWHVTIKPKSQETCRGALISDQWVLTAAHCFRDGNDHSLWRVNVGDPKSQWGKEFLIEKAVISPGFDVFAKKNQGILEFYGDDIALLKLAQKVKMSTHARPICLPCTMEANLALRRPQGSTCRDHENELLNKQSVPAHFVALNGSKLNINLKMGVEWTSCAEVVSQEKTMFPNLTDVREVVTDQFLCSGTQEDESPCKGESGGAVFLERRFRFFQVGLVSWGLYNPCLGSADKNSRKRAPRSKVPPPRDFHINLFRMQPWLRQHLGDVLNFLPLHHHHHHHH

[3] = target: T3, human C2 H446A (human, UniProt P06681 21-752)
T3 sequence: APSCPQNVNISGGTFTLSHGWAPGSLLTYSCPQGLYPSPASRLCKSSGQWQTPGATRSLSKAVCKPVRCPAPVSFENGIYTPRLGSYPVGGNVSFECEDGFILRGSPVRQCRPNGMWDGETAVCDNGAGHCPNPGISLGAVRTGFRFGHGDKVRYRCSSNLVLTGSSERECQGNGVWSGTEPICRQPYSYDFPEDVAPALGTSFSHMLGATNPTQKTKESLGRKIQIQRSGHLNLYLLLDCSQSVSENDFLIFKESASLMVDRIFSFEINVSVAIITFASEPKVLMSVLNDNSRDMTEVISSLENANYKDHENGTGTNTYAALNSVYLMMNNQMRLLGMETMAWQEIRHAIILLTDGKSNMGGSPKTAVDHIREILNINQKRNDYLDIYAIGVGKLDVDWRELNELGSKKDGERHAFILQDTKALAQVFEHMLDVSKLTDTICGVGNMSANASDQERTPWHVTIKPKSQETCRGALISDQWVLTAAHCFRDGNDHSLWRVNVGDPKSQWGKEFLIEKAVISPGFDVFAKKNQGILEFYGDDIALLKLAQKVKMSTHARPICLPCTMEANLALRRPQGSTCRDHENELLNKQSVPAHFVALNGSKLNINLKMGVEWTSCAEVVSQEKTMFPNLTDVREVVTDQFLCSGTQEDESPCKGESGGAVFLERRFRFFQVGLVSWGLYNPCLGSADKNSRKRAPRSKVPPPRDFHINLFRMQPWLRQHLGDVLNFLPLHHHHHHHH

[4] = target: T4, human C2 K457A (human, UniProt P06681 21-752)
T4 sequence: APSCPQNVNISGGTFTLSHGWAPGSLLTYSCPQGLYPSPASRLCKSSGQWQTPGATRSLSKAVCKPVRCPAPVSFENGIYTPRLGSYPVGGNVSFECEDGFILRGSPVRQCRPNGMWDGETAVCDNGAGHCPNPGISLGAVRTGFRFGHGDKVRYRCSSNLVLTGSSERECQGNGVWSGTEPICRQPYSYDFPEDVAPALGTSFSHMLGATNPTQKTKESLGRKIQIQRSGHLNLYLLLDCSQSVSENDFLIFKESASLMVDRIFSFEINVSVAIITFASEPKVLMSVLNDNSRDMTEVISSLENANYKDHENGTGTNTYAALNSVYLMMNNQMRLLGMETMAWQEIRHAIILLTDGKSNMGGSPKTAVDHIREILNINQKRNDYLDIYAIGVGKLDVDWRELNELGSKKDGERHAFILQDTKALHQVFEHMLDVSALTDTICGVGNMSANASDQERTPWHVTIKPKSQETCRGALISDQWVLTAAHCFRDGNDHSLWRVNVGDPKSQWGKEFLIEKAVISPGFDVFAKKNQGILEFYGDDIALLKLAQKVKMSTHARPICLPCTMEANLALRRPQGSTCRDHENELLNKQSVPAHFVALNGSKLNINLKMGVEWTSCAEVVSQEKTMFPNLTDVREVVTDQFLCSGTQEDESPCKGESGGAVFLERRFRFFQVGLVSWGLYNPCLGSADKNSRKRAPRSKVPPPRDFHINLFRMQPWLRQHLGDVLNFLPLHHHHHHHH

B1: RF16-242 (antibody, human IgG4 S228P, lambda, V domains shown)
VH: EVQLLQSGAEVKKPGESLKISCKGSGYSFTSYWIGWVRQMPGKGLEWMGIIYPGDSDTRYSPSFQGQVTISADKSISTAYLQWSSLKASDTAMYYCARRGHYGDYFDYWGQGTLVTVSS
VL: SYELTQPPSVSVSPGQTARITCSGDALPKKYAYWYHQKSGQAPVLVIYEDRRRPSEIPERFSGSSSGTMATLTITGAQVEDEGVYFCYSRDRAGNQRVFGGGTQLTVLG
notes: pH-dependent anti-C2 antibody from a phage display library
For B1, the Kd [1] was 6.8 nM, the Kd [2] was 62.5 nM and the Kd [3] was 16.1 nM. The Kd [4] was 233 nM.
